According to US8357523B2, “Beta-glucosidase variant enzymes and related polynucleotides” (Codexis, Inc., priority 2009, dated 2013):

Assay: High throughput cellobiose assay: fold improvement in cellobiase activity of CelA variants over a control enzyme (Tables 2A-2D, 3, 5, 6, 7)
Type: biochemical
Details: 3.3 g/l cellobiose; for Fold Improvement over Control Variant: 65° C. and pH 5 (incubation overnight), relative to Control #5, Variant No. 366 (SEQ ID NO: 9)

B1: 428 (protein)
chain: SAAITQEGAAPAAMLHPEKWPRPATQRLIDPAVEKRVDALLKQLSVEEKVGQVIQGDIGTITPEDLRKYPLGSILAGGDSGPNGDDRAPPKEWLDLADAFYRVSLEKRPGHTPIPVLFGIDAVHGHNNIGSATIFPHNIALGMTRDPELLRRIGEVTAEEMAATGIDWTFAPALSVPRDDRWGRTYEGFSEDPEIVASYSAAIVEGFQGKYGSKDFMAPGRAVACAKHFLADGGTDQGRDQGDARISEDELIRIHNAGYPPAIDAGVLTVMASFSSWQGIKHHGHKQLLTDVLKGQMGFNGFIVGDWNAHDQVPGCTKFNCPTSLIAGLDMYMAADSWKQLYENTLAQVKDGTIPMARLDDAVRRILRVKVLAGLFEKPAPKDRPGLPGLETLGSPEHRTVGREAVRKSLVLLKNDKGTLPLSPKARVLVAGDGADNIGKQSGGWTISWQGTGNRNDEFPGATSILGGIRDAVADAGGSVEFDVAGQYKTKPDVAIVVFGEEPYAEFQGDVETLEYQPDQKQDLTLLKKLKDQGIPVVAVFLSGRPMWVNPELNASDAFVAAWLPGTEGGGVADVLFTDKAGKVQHDFAGKLSYSWPRTAAQTTVNRGDADYNPLFAYGYGLTYKDKSKVGTLPEESGVPAEARQNAGIYFRAGALRLPGRFL
modifications: truncated; signal peptide F-10T
  Fold Improvement over Control Variant: ++ (++ = 1.1 to 2.0 fold improvement over control Variant No. 366)

B2: 429 (protein)
chain: SAAITQEGAAPAPMLHPEKWPRPATQRLIDPAVEKRVDALLKQLSVEEKVGQVIQGDIGTITPEDLRKYPLGSILAGGDSGPNGDDRAPPKEWLDLADAFYRVSLEKRPGHTPIPVLFGIDAVHGHNNIGSATIFPHNIALGMTRDTELLRRIGEVTAEEMAATGIDWTFAPALSVVRDDRWGRTYEGFSEDPEIVASYSAAYVEGFQGKYGSKDFMAPGRAVACAKHFLADGGTDQGRDQGDARISEDELIRIHNAGYPPAIDAGVLTVMASFSSWQGIKHHGHKQLLTDVLKGQMGFNGFIVGDWNAHDQVPGCTKFNCPTSLIAGLDMYMAADSWKQLYENTLAQVKDGTIPMARLDDAVRRILRVKVLAGLFEKPAPKDRPGLPGLETLGSPEHRAVGREAVRKSLVLLKNDKGTLPLSPKARVLVAGDGADNIGKQSGGWTISWQGTGNRNDEFPGATSILGGIRDAVADAGGSVEFDVAGQYKTKPDVAIVVFGEEPYAEFRGDVETLEYQPDQKQDLTLLKKLKDQGIPVVAVFLSGRPMWVNPELNASDAFVAAWLPGTEGGGVADVLFTDKAGKVQYDFAGKLSYSWPRTAAQTTVNRGDADYNPLFAYGYGLTYKDKSKVGTLPEESGVPAEARQNAGIYFRAGALRLPGRFL
modifications: truncated; signal peptide F-10T
  Fold Improvement over Control Variant: ++ (++ = 1.1 to 2.0 fold improvement over control Variant No. 366)

B3: 222 (protein)
chain: STAITQEGAAPAAILHPEKWPRPATQRLIDPAVEKRVDALLKQLSVEEKVGQVIQGDIGTITPEDLRKYPLGSILAGGDSGPNGDDRAPPKEWLDLADAFYRVSLEKRPGHTPIPVLFGIDAVHGHGNIGSATIFPHNIALGMTRDPELLRRIGEVTAEEMAATGIDWTFAPALSVVRDDRWGRTYEGFSEDPEIVASYSAAIVEGVQGKYGSKDFMAPGRIVASAKHFLADGGTDQGRDQGDARISEDELIRIHNAGYPPAIDAGVLTVMASFSSWQGIKHHGHKQLLTDVLKGQMGFNGFIVGDWNAHDQVPGCTKFNCPTSLIAGLDMYMAADSWKQLYENTLAQVKDGTIPMARLDDAVRRILRVKVLAGLFEKPAPKDRPGLPGLETLGSPEHRAVGREAVRKSLVLLKNDKGTLPLSPKARVLVAGDGADNIGKQSGGWTISWQGTGNRNDEFPGATSILGGIRDAVADAGGSVEFDVAGQYKTKPDVAIVVFGEEPYAEFQGDVETLEYQPDQKQDLALLKKLKDQGIPVVAVFLSGRPMWVNPELNASDAFVAAWLPGTEGGGVADVLFTDKAGKVQHDFAGKLSYSWPRTAAQTTVNRGDADYNPLFAYGYGLTYKDKSKVGTLPEESGVP
55° C. and pH 5.3 (incubation overnight)
  Fold improvement over Control Variant No. 94 from Table 2B: ++++ (++++ = 1.1 to 1.5 fold improvement over Control No. 3, Variant No. 94)
